From the supplement of paper PMC10065799, “High-throughput profiling of sequence recognition by tyrosine kinases and SH2 domains using bacterial peptide display” (eLife, 2023)

Target: Fes (UniProt P07332)
Test: phosphorylation enrichment, bacterial display (enrichment ratio); higher = better substrate or ligand; peptides without Tyr show the background
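Further: 11-residue human phosphosite peptides and single-mutation variants displayed on the E. coli surface, counted by deep sequencing, each peptide's frequency after selection divided by its frequency in the unselected input library; frequency after pTyr selection over input frequency; kinase dosed for 20-30% of maximal phosphorylation in three min.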

Sequence of Fes (P07332 whole entry, looked up): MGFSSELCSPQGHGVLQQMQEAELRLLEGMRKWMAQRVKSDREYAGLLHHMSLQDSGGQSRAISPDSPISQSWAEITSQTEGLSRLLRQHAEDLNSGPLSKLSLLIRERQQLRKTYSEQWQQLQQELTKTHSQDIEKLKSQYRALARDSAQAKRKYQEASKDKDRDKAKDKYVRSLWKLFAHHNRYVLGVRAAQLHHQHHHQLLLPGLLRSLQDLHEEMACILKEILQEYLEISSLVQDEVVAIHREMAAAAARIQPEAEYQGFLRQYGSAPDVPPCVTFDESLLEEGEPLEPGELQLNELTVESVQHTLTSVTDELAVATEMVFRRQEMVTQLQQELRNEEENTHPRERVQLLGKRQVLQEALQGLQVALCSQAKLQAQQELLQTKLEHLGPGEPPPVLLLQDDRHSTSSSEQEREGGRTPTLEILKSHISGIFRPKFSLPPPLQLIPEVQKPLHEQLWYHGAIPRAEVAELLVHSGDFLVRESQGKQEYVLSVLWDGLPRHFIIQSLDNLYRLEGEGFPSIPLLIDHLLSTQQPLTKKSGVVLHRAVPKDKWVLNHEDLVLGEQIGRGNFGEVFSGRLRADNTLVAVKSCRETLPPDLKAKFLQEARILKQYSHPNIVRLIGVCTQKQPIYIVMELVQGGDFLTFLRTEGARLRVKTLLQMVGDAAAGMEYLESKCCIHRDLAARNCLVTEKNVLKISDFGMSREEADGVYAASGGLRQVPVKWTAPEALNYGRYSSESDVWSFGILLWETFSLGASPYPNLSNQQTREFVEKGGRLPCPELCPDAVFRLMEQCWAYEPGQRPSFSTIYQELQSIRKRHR

Sequence | phosphorylation enrichment
RLGDLYEEEMR [VIM_Y150] | 1.14
VFPIDYFFPPQ [AR_Y552_L548F_YF] | 1.04
KRLAVYQAGAR [APOE_Y180] | 0.504
SADIAYNYRHG [PAH_Y166_F161S] | 0.498
PPAPRYHHLAV [LZTR1_Y119_S122L] | 0.964
GIMEEYQLPFF [BMPR1A_Y453_V450M_YF] | 1.11
IGCHAYGDQFR [IDH1_Y135_R132C_YF] | 1.04
TGDFGYRTPGF [TNS2_Y668_A670T_YF] | 0.632
DLHGIYQKLVI | 1.04
VHVEVYDRPSP | 1.02
DMLYQYLKQIE [RPAP3_Y569] | 0.887
AKIDGYITSFR | 0.957
RTTIHYNYMCN [TP53_Y234_C229R] | 2.24
YKTPIYPYLLP [PLD2_Y578_T577I] | 0.857
AKRKGYDMQVD [NEB_Y2770_R2773Q] | 0.395
AMGAVYQAAAL [HYOU1_Y421] | 0.615
FQQLFYLLQTN [IQGAP2_Y890_YF] | 1.5

Sequence | phosphorylation enrichment
ETKEDYEKILV [ANXA1_Y335_G333E] | 1.23
KTVQDYLEKFF [MMP8_Y36_YF] | 1.28
LLGFLYFFVCS [SLC34A2_Y109] | 3.17
FRDMDYRSFPR [RBM10_Y41_YF] | 0.864
SGIYQYSIAKF [FOXL2_Y83_I84S] | 1.18
LLNPSYNLPLD [TOM1L1_Y109_R108S] | 1.45
RLAKTYKTTLE [ALB_Y377_E378K] | 0.632
RNPLRYTSILT [OR51B6_Y130_S126N] | 0.794
IRQDHYESLKE [MTR_Y921] | 0.873
TTPGPHRSIFF [MPG_Y71_Y71H_YF] | 0.514
PSARTYCYKQE [KLHDC9_Y175] | 1.29
LLLLFCVVRYC [MPZ_Y177_Y177C] | 2.07
SIRFNYLLDVL [FGFR4_Y237_YF] | 1.14
EIIPFYGMSTF [FNDC3B_Y175_YF] | 0.911
WFPSTYVEEDE [VAV3_Y842] | 1.5
ANNEYYFQVCA | 1.5

Target: Fyn (UniProt P06241)
Sequence (P06241 whole entry, looked up): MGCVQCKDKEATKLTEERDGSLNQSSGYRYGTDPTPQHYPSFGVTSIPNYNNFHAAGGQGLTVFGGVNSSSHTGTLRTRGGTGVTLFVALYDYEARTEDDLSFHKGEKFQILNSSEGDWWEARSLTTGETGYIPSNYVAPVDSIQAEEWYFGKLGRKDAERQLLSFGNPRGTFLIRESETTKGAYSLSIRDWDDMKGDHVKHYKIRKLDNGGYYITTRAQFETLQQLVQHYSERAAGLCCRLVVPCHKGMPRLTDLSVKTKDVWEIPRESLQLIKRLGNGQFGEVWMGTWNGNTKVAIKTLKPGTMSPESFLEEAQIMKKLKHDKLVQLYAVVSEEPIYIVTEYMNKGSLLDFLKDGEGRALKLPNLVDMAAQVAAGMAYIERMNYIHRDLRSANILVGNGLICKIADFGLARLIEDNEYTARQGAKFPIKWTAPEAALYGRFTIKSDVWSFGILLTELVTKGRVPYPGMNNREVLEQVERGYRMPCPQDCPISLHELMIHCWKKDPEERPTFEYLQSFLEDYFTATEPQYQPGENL
Test: as above

Sequence | phosphorylation enrichment
RLGDLYEEEMR [VIM_Y150] | 0.487
VFPIDYFFPPQ [AR_Y552_L548F_YF] | 0.508
KRLAVYQAGAR [APOE_Y180] | 0.405
SADIAYNYRHG [PAH_Y166_F161S] | 0.345
PPAPRYHHLAV [LZTR1_Y119_S122L] | 0.444
GIMEEYQLPFF [BMPR1A_Y453_V450M_YF] | 1.2
IGCHAYGDQFR [IDH1_Y135_R132C_YF] | 0.495
TGDFGYRTPGF [TNS2_Y668_A670T_YF] | 0.457
DLHGIYQKLVI | 8.38
VHVEVYDRPSP | 0.855
DMLYQYLKQIE [RPAP3_Y569] | 1.19
AKIDGYITSFR | 0.439
RTTIHYNYMCN [TP53_Y234_C229R] | 1.16
YKTPIYPYLLP [PLD2_Y578_T577I] | 0.787
AKRKGYDMQVD [NEB_Y2770_R2773Q] | 0.327
AMGAVYQAAAL [HYOU1_Y421] | 1.91
FQQLFYLLQTN [IQGAP2_Y890_YF] | 0.608

Sequence | phosphorylation enrichment
ETKEDYEKILV [ANXA1_Y335_G333E] | 0.501
KTVQDYLEKFF [MMP8_Y36_YF] | 0.519
LLGFLYFFVCS [SLC34A2_Y109] | 1.26
FRDMDYRSFPR [RBM10_Y41_YF] | 0.424
SGIYQYSIAKF [FOXL2_Y83_I84S] | 4.54
LLNPSYNLPLD [TOM1L1_Y109_R108S] | 0.979
RLAKTYKTTLE [ALB_Y377_E378K] | 0.253
RNPLRYTSILT [OR51B6_Y130_S126N] | 0.532
IRQDHYESLKE [MTR_Y921] | 0.494
TTPGPHRSIFF [MPG_Y71_Y71H_YF] | 0.398
PSARTYCYKQE [KLHDC9_Y175] | 0.533
LLLLFCVVRYC [MPZ_Y177_Y177C] | 1.78
SIRFNYLLDVL [FGFR4_Y237_YF] | 0.432
EIIPFYGMSTF [FNDC3B_Y175_YF] | 0.687
WFPSTYVEEDE [VAV3_Y842] | 0.51
ANNEYYFQVCA | 0.607
